Assay results published in patent US8273705B2, “Conversion of apoptotic proteins” (The Burnham Institute, priority 2002, dated 2012).

Assays:
Calu-6 lung cancer cells = assay: Mitochondrial targeting and cytochrome c release in Calu-6 cells; format: cell-based
From the text: TR3/ΔDBD targets mitochondria in NCI-H460 cells, which express high levels of Bcl-2 (Lu et al. 2001 Cancer Chemother Pharmacol 47:170-178). To determine whether Bcl-2 is involved in mitochondrial targeting of TR3, GFP-TR3/ΔDBD was transfected into Calu-6 lung cancer cells, which express low levels of Bcl-2. GFP-TR3/ΔDBD and Bcl-2 were transfected into Calu-6 lung cancer cells alone or together.

Bcl-2/ΔTM = target: T1, Bcl-2/ΔTM (Homo sapiens, UniProt P10415); assay: Mammalian two-hybrid assay in CV-1 cells; format: cell-based; conditions: Gal-TAD fusion co-expressed with Gal4-DBD-Bcl-2/ΔTM, 48 h
T1 construct: expressed in transfected cells; host or cells: CV-1
Protocol: TR3/Bcl-2 interaction assays—Reporter gene assays using NurRE-tk-CAT in CV-1 cells, and GST pull-down assay were described previously (Li, et al. 2000 Science 289, 1159-1164). For the mammalian two-hybrid assays, CV-1 cells were co-transfected with pcDNA-Gal4TAD-TR3 or pcDNA-Gal4TAD-TR3/ΔDBD and pcDNA-Gal4DBD-Bcl-2/ΔTM along with a luciferase reporter gene driven by four copies of the Gal4-binding site. The cells were harvested and reporter gene activity was measured. For Co-IP assays, HEK293T cells were transiently transfected with various expression plasmids using a modified calcium phosphate precipitation method (Wu et al, 1997) in the presence of caspase inhibitors (zVAD-fmk) to prevent degradation of TR3 protein due to apoptosis. Cells were suspended in lysis buffer (50 mM Tris-HCl, PH7.4; 150 mM NaCl; 20 mM EDTA; 1% NP-40; 1 mM PMSF; 50 μg/ml Leupeptin; […]; 0.1 mM Na3VO4; and 1 mM DTT). […] Immunoreactive products were detected by chemiluminescence with an enhanced chemiluminescence system (ECL) (Amersham).
E. Two-hybrid assay—a two-hybrid assay was performed to assess the interaction of TR3 and Bcl-2. […] Reporter gene activity was determined 48 h later and normalized relative to β-gal activity.

Bcl-2 = target: T2, Bcl-2 (Homo sapiens, UniProt P10415); assay: Bcl-2 conformation by epitope-specific antibody immunofluorescence (flow cytometry); format: cell-based; conditions: HEK293T, co-expressed with Bcl-2, 14 h
T2 construct: expressed in transfected cells; host or cells: HEK293T
Protocol: Therefore the possibility that a conformational change might be involved in the conversion of Bcl-2 from anti-apoptotic to pro-apoptotic function was explored. To this end, the effects of TR3 on binding of Bcl-2 to various anti-Bcl-2 antibodies recognizing different epitopes were compared. Antibody binding to Bcl-2 was measured by immunofluorescence using flow cytometry (See FIGS. 9a-f) or by immunoprecipitation.
The transfected cells were identified by their green fluorescence by flow cytometric analysis, and the intensity of Bcl-2 immunofluorescence was compared between the GFP-positive and GFP-negative cells. […] This TR3/ΔDBD-induced change in Bcl-2 conformation was also observed in PBLs in addition to HEK293T cells (See FIGS. 9a-f).

[1] = tested on: Bcl-2 mutants Y108K, L137A, G145A, R146Q; assay: Co-IP assay with Bcl-2 hydrophobic groove mutants in HEK293T cells; format: binding
Protocol: TR3/Bcl-2 interaction assays—Reporter gene assays using NurRE-tk-CAT in CV-1 cells, and GST pull-down assay were described previously (Li, et al. 2000 Science 289, 1159-1164). For the mammalian two-hybrid assays, CV-1 cells were co-transfected with pcDNA-Gal4TAD-TR3 or pcDNA-Gal4TAD-TR3/ΔDBD and pcDNA-Gal4DBD-Bcl-2/ΔTM along with a luciferase reporter gene driven by four copies of the Gal4-binding site. The cells were harvested and reporter gene activity was measured. […] Immunoreactive products were detected by chemiluminescence with an enhanced chemiluminescence system (ECL) (Amersham).
Binding of BH3 domain to Bcl-2 is mediated by a hydrophobic cleft formed by the BH1, BH2, and BH3 region of Bcl-2 (Sattler et al. 1997 Science 275:983-986). To determine whether TR3/ΔDBD bound to the Bcl-2 hydrophobic groove, several Bcl-2 mutants with mutations of amino acids, Tyr108, Leu137, or Arg146, critical for the formation of the hydrophobic cleft, were analyzed for their interaction with TR3/ΔDBD. […] The Bcl-2 mutants, Y108KBcl-2, L137ABcl-2 and R146QBcl-2, were analyzed for their interaction with GFP-TR3/ΔDBD in 293T cells by Co-IP assay as described in Example 2. […]

LNCaP cells = assay: Colocalization of transfected GFP-TR3/ΔDBD and Bcl-2 in LNCaP cells; format: cell-based; conditions: cotransfected with Bcl-2, 20 h
Protocol: Next, the interaction of transfected TR3 and Bcl-2 was analyzed.

T2 sequence (P10415 whole entry): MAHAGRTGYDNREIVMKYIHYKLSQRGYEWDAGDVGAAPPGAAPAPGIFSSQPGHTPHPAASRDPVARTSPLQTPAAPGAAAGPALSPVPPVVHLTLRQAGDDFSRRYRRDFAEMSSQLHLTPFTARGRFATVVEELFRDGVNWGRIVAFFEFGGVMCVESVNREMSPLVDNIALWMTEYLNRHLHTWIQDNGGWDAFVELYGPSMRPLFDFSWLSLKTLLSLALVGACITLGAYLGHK
Bcl-2 mutants Y108K, L137A, G145A, R146Q, sequence (P10415 1-80 limits assumed, stated change not applied): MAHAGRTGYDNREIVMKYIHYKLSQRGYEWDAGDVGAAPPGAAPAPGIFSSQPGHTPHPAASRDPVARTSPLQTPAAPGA
T1 sequence (P10415 1-204 limits assumed, stated change not applied): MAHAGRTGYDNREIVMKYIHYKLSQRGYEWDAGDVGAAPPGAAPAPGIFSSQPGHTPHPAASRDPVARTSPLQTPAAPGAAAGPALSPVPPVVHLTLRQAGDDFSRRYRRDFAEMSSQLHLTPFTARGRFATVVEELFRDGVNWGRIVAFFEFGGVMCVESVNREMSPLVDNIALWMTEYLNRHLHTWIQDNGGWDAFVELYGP

B1: TR3/ΔDBD: TR3 mutant with the DNA binding domain removed; used as GFP fusion (protein)
chain: MPCIQAQYGTPAPSPGPRDHLASDPLTPEFIKPTMDLASPEAAPAAPTALPSFSTFMDGYTGEFDTFLYQLPGTVQPCSSASSSASSTSSSSATSPASASFKFEDFQVYGCYPGPLSGPVDEALSSSGSDYYGSPCSAPSPSTPSFQPPQLSPWDGSFGHFSPSQTYLVLHRLQCARGFGDWIDSILAFSRSLHSLLVDVPAFACLSALVLITDRHGLQEPRRVEELQNRIASCLKEHVAAVAGEPQPASCLSRLLGKLPELRTLCTQGLQRIFYLKLEDLVPPPPIIDKIFMDTLPF
modifications: left off: large carriers; small tags and cut ends
notes: used as GFP fusion
- subcellular distribution (Calu-6 lung cancer cells; Calu-6, Bcl-2 co-transfected): targeted mitochondria
- cytochrome c release (Calu-6 lung cancer cells; Calu-6, Bcl-2 cotransfected): released from mitochondria
- subcellular distribution (Calu-6 lung cancer cells; Calu-6, alone): diffusely distributed
- Gal4 reporter gene activity (Bcl-2/ΔTM): strongly activated
- Bcl-2 immunofluorescence, antibody against BH3-binding pocket (Bcl-2): reduced
- Bcl-2 immunofluorescence, antibody against Bcl-2 BH3 domain (Bcl-2): dramatically increased
- Bcl-2 immunofluorescence, antibody against whole Bcl-2 protein (Bcl-2): did not result in altered Bcl-2 immunofluorescence
- binding of Bcl-2 hydrophobic groove mutants to TR3/ΔDBD (Co-IP) [1]: still capable of binding
- transfected cells exhibiting colocalization with Bcl-2 (LNCaP cells): Approximately 30%
